Assay results: paper PMC4411306, “Osmosensing and scaffolding functions of the oligomeric four-transmembrane domain osmosensor Sho1” (Nature Communications, 2015)
Changes are numbered by the printed parent chain. Names and notes keep the numbering of the source.

B1: HA-Sho1* G50C (natural protein, Saccharomyces cerevisiae, UniProt P40073 1-367, looked up)
chain: MSISSKIRPTPRKPSRMATDHSFKMKKFYADPFAISSISLAIVSWVIAICGSISSASTNESFPRFTWWGIVYQFLIISSLMLFYSFDLVDHYRIFITTSIAVAFVYNTNSATNLVYADGPKKAAASAGVILLSIINLIWILYYGGDNASPTNRWIDSFSIKGIRPSPLENSLHRARRRGNRNTTPYQNNVYNDAIRDSGYATQFDGYPQQQPSHTNYVSSTALAGFENTQPNTSEAVNLHLNTLQQRINSASNAKETNDNSNNQTNTNIGNTFDTDFSNGNTETTMGDTLGLYSDIGDDNFIYKAKALYPYDADDDDAYEISFEQNEILQVSDIEGRWWKARRANGETGIIPSNYVQLIDGPEEMHR
notes: Sho1, S. cerevisiae, Cys-less (C78S C85S) with a single Cys in TM1; source: S. cerevisiae KT079 (sho1Δ), GAL1 promoter, in membrane fraction; in intact cells; not shown: HA, N-terminal, kept
B2: HA-Sho1* T112C (natural protein, Saccharomyces cerevisiae, UniProt P40073 1-367, looked up)
chain: B1 chain with C50G, T112C
notes: Sho1, S. cerevisiae, Cys-less (C78S C85S) with a single Cys in TM3; source: S. cerevisiae KT079 (sho1Δ), GAL1 promoter, in membrane fraction; not shown: HA, N-terminal, kept
B3: HA-Sho1* T66C (natural protein, Saccharomyces cerevisiae, UniProt P40073 1-367, looked up)
chain: B1 chain with C50G, T66C
notes: Sho1, S. cerevisiae, Cys-less (C78S C85S) with a single Cys in TM2; also called Sho1-FL-T66C; source: S. cerevisiae KT079 (sho1Δ), GAL1 promoter, in membrane fraction; not shown: HA, N-terminal, kept
B4: HA-Sho1*-A124C (natural protein, Saccharomyces cerevisiae, UniProt P40073 1-367, looked up)
chain: B1 chain with C50G, A124C
notes: Sho1, S. cerevisiae, Cys-less (C78S C85S) with a single Cys in TM4; source: S. cerevisiae KT079 (sho1Δ), GAL1 promoter, in membrane fraction; S. cerevisiae KY590-1, GAL1 promoter, in intact cells, then lysate; not shown: HA, N-terminal, kept
B5: HA-Sho1* T66C I94C (natural protein, Saccharomyces cerevisiae, UniProt P40073 1-367, looked up)
chain: B1 chain with C50G, T66C, I94C
notes: Sho1, S. cerevisiae, Cys-less (C78S C85S) with Cys in TM2 and TM3; source: S. cerevisiae KT079 (sho1Δ), GAL1 promoter, in membrane fraction; not shown: HA, N-terminal, kept
B6: HA-Sho1* G50C A124C (natural protein, Saccharomyces cerevisiae, UniProt P40073 1-367, looked up)
chain: B1 chain with A124C
notes: Sho1, S. cerevisiae, Cys-less (C78S C85S) with Cys in TM1 and TM4; also called G/C A/C; source: S. cerevisiae KT079 (sho1Δ), GAL1 promoter, in membrane fraction; not shown: HA, N-terminal, kept
B7: HA-Sho1* T66C T112C (natural protein, Saccharomyces cerevisiae, UniProt P40073 1-367, looked up)
chain: B1 chain with C50G, T66C, T112C
notes: Sho1, S. cerevisiae, Cys-less (C78S C85S) with Cys in TM2 and TM3; also called T/C T/C; source: S. cerevisiae KT079 (sho1Δ), GAL1 promoter, in membrane fraction; not shown: HA, N-terminal, kept
B8: HA-Sho1* I94C T112C (natural protein, Saccharomyces cerevisiae, UniProt P40073 1-367, looked up)
chain: B1 chain with C50G, I94C, T112C
notes: Sho1, S. cerevisiae, Cys-less (C78S C85S) with two Cys in TM3; source: S. cerevisiae KT079 (sho1Δ), GAL1 promoter, in membrane fraction; not shown: HA, N-terminal, kept
B9: HA-Sho1* I53C (natural protein, Saccharomyces cerevisiae, UniProt P40073 1-367, looked up)
chain: B1 chain with C50G, I53C
notes: Sho1, S. cerevisiae, Cys-less (C78S C85S) with a single Cys; source: S. cerevisiae KT079 (sho1Δ), GAL1 promoter, in membrane fraction; not shown: HA, N-terminal, kept
B10: HA-Sho1* A123C (natural protein, Saccharomyces cerevisiae, UniProt P40073 1-367, looked up)
chain: B1 chain with C50G, A123C
notes: as for B9
B11: HA-Sho1* N109C (natural protein, Saccharomyces cerevisiae, UniProt P40073 1-367, looked up)
chain: B1 chain with C50G, N109C
notes: as for B9
B12: HA-Sho1* V105C (natural protein, Saccharomyces cerevisiae, UniProt P40073 1-367, looked up)
chain: B1 chain with C50G, V105C
notes: as for B9
B13: HA-Sho1* S54C (natural protein, Saccharomyces cerevisiae, UniProt P40073 1-367, looked up)
chain: B1 chain with C50G, S54C
notes: as for B9

Target: the molecule itself
Experiment: cross-linking; membrane fraction of cells expressing a single-Cys mutant of HA-Sho1*; homo-trifunctional crosslinker TMEA; SDS–PAGE, anti-HA blot

| Protein | stoichiometry N |
| --- | --- |
| B1 | 2 |
| B2 | 3 |
| B3 | 3 |
| B4 | 2 |

Target: the molecule itself
Experiment: cross-linking; detergent-free membrane fraction of sho1Δ cells expressing a Cys mutant of HA-Sho1*; 0.2 mM bifunctional thiol crosslinker (o-PDM, p-PDM or BMH), 20 min, 25 °C; SDS–PAGE, anti-HA blot

| Protein | stoichiometry N |
| --- | --- |
| B5 | 3 |
| B6 | 2 |
| B7 | 3 |
| B8 | 3 |

Target: the molecule itself
Experiment: cross-linking; spontaneous disulfide bond formation: membrane fractions without chemical crosslinker, SDS–PAGE without 2-ME, anti-HA blot

| Protein | stoichiometry N |
| --- | --- |
| B9 | 2 |
| B10 | 2 |
| B11 | 2 |
| B12 | 2 |
| B13 | 2 |
